For two molecules, decay half-life of the convertase, Kd and stoichiometry N results are on record in PMC2881335.

Where “and” joins values, the source holds several entries; their conditions need not be identical. Equal entries are not always repeated.

Assay [1] addresses complement C3b, site-specifically biotinylated at the thioester moiety (UniProt P01024). Kind of assay: SPR.
For assay [2] the target is unchanged. Kind of assay: SPR. This is another data set of the same source.
The target in assay [3] is complement C3b (UniProt P01024). Kind of assay: ITC.

For the molecule “Bb fragment of factor B (from UniProt P00751 260-764) (domain or fragment)”, the decay half-life of the convertase in assay [1] lay within 5 to 6 min.

B1: staphylococcal complement inhibitor SCIN-A (natural protein)
chain: STSLPTSNEYQNEKLANELKSLLDELNVNELATGSLNTYYKRTIKISGQKAMYALKSKDFKKMSEAKYQLQKIYNEIDEALKSKY
For the molecule B1, the Kd in assay [2] was 169 nM and 177 nM; in assay [3], 264 nM. The molecule further displayed a stoichiometry N in assay [3] of 0.75.
